The text below walks through data of patent US20200157519A1 (IMMUNWORK, published 2020).

Assay [1] has as its target T1, crosslinked human fibrin treated by human factor XIIIa (human, UniProt P02671 36-629; P02675 45-491; P02679 27-437, crosslinked by factor XIIIa).
T1 construct: Coated human fibrinogen treated with thrombin and 0.55 ug factor XIIIa (Zedira) per well; also called crosslinked fibrin
T1 sequence (looked up) 1: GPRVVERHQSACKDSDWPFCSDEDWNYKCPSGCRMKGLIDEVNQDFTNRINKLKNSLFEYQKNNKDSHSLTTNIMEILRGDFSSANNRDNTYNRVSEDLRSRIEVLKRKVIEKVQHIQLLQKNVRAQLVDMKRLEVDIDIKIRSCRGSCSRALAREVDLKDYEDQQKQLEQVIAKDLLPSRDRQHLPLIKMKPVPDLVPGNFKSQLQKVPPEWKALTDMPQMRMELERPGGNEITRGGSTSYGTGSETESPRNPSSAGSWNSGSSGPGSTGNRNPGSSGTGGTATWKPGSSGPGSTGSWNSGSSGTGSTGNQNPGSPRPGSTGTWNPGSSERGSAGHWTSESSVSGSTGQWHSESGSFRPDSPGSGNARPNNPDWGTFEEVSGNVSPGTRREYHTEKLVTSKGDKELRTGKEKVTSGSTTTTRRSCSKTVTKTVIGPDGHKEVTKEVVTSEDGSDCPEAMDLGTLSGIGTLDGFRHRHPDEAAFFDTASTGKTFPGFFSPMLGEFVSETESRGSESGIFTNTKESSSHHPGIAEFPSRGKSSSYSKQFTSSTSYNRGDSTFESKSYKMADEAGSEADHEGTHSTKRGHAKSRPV
T1 sequence (looked up) 2: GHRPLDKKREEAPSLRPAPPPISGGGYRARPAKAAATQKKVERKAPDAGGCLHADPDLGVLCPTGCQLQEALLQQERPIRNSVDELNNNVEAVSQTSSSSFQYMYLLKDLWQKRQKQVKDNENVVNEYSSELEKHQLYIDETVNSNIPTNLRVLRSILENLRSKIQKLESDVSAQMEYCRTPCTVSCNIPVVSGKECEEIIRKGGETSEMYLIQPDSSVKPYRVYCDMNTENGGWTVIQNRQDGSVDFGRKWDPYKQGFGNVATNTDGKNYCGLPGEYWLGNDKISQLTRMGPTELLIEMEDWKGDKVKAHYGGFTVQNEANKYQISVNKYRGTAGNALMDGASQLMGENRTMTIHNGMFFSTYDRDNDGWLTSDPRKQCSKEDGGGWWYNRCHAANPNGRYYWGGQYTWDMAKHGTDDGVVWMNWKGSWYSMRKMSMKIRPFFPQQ
T1 sequence (looked up) 3: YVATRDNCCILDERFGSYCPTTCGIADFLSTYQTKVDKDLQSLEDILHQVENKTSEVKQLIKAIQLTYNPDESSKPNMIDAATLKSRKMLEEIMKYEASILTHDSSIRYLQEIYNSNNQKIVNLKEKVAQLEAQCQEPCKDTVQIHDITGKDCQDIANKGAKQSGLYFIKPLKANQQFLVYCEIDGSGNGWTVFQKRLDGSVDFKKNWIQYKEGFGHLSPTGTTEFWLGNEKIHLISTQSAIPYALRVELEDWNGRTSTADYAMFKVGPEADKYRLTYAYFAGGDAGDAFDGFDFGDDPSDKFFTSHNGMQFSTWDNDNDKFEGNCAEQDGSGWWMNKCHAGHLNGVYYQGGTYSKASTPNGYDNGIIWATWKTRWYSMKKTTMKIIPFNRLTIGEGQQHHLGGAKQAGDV
The assay is described as follows: ELISA on crosslinked fibrin plate, HRP-protein L. A general note: In an ELISA, binding on a coated surface is turned into a signal by an enzyme label.

The target in assay [2] is T2, human fibrin (human fibrinogen coated on the plate and treated with thrombin) (human, UniProt P02671 36-629; P02675 45-491; P02679 27-437).
T2 construct: Made on the plate: coated human fibrinogen (Sigma) treated with 1.0 U/mL thrombin, CaCl2 and L-cysteine
T2 sequence (looked up) 1: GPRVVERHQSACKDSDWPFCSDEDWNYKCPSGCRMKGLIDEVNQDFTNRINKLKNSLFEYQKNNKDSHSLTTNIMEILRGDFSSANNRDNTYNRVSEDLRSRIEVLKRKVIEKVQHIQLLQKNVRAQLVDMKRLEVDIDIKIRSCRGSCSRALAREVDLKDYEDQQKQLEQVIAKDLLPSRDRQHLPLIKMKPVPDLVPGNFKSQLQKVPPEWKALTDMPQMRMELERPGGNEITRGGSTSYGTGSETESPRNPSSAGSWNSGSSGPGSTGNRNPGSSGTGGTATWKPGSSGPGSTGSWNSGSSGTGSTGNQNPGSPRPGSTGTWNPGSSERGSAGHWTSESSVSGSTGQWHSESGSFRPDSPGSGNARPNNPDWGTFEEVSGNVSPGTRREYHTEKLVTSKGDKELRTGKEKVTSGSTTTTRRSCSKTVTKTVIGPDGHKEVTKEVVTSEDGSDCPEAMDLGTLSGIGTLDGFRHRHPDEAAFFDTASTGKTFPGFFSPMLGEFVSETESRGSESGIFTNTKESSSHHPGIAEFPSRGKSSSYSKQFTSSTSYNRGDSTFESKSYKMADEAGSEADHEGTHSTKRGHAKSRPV
T2 sequence (looked up) 2: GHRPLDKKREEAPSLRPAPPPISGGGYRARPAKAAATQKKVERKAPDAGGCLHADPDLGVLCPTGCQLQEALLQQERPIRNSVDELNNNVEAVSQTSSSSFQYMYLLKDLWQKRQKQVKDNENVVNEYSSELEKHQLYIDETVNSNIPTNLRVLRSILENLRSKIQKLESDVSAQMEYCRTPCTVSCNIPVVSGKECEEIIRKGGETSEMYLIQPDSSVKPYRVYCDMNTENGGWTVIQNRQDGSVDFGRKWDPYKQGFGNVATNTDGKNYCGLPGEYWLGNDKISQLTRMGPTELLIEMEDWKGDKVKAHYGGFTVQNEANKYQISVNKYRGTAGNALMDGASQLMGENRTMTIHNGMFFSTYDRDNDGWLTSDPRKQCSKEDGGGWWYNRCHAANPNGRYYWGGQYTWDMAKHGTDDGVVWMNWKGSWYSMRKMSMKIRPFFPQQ
T2 sequence (looked up) 3: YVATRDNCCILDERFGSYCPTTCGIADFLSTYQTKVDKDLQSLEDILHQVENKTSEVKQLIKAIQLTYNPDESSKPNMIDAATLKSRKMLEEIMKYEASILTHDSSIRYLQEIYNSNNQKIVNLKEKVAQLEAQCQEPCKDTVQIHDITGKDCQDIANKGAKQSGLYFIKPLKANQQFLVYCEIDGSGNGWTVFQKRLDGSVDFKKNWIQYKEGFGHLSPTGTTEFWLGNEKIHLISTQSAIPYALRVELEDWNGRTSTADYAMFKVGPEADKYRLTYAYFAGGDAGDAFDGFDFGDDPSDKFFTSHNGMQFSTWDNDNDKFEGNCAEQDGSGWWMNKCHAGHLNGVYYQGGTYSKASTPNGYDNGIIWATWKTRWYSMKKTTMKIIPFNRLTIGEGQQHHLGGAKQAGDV
The assay is described as follows: ELISA on fibrin-coated plate, HRP-protein L. The method, then:
Each fibrin plate was prepared as follows. 100 μL of TBS containing a final concentration of 1.0 U/mL thrombin (Sigma), 2 mM CaCl, and 7 mM L-cysteine (Merck) was added to the wells of the fibrinogen plate, which was then washed with TBS and blocked with the buffer (5% non-fat dry milk/PBS). After the blocking, 100 μL of antibodies were added to each well, and the plate was incubated at room temperature for 1 hour. The plate was then washed three times, the HRP-conjugated protein L diluted to 1/5000 was added to the wells and incubated for 1 hour at room temperature. The wells were washed three times and added with 100 μL of TMB substrate buffer. 5 minutes later, the color development was stopped with 1 M HCl. The optical density (OD) was measured at 450 nm using a microplate reader.

The target of assay [3] is T2, human fibrin (human fibrinogen coated …). The assay is described as follows: single colony ELISA, OD450 on fibrin divided by OD450 on fibrinogen. The method, then:
(§1) E. coli strain ER2738 infected with single-clonal phages each harboring a selected scFv gene in its phagemid was grown in the mid-log phase in 2YT broth (16 g/L tryptone, 10 g/l yeast extract, 5 g/l NaCl, pH 7.0) with 100 μg/ml ampicillin in deep well at 37° C. with shaking. After broth reaching an OD₆₀₀ of 1.0, IPTG was added to a final concentration of 1 μg/ml. The plates were incubated at 37° C. overnight with rigorously shaking. Thereafter, the plates were centrifuged at 4,000 g for 15 minutes at 4° C.
(§2) For soluble scFv binding test, ELISA was carried out. In brief, 96-well Maxisorp 96-well plate (Nunc) was coated with fibrin (0.5 μg/100 μL PBS per well) or a negative control antigen, human fibrinogen, for 18 hours with shaking at 4° C. After treated with 300 μL of blocking buffer for one hour, 100 μL of secreted scFv in the supernatant was mixed with 100 μL of blocking buffer and then added to the coated plate for another one hour. Goat anti-E-tag antibody (conjugated with HRP, 1:4000, Cat. No. AB19400, Abcam) was added to the plate for one hour. TMB substrate (50 μL per well) was added to each well and the absorbance at 450 nm was measured after reactions were stopped by adding 1 N HCl (50 μL per well). The OD₄₅₀ for each well was measured to determine the binding affinity of each scFv clone to fibrin or fibrinogen. For each scFv clone, the OD₄₅₀ value with respect to fibrin was divided by with the OD₄₅₀ value with respect to fibrinogen to obtain an OD₄₅₀ ratio representing the selective binding of said scFv to fibrin over fibrinogen. In the single colony ELISA analysis, a total of 192 phage clones after the 3rd panning round was subjected to the present analysis. Among them, 12 scFv clones that bound to fibrin with an OD₄₅₀ ratio greater than 10 were further characterized by sequencing their scFv-coding gene. Six different DNA sequences were identified. […] The amino acid sequence of an scFv clone D10, which binds to human fibrin with an OD₄₅₀ of 1.3, is shown in SEQ ID NO: 4.

For assay [4] the target is unchanged. Put plainly: single colony ELISA, secreted scFv on coated fibrin, anti-E-tag-HRP. The method, then:
as §1, §2

B1: recombinant anti-fibrin 3D5 antibody (full-length) (antibody, human IgG1, kappa, V domains shown)
VH: EVQLVESGGGLVQPGGSLRLSCAASGFTISDFGIHWVRQAPGKGLEWVASIWPSGGYTYYADSVKGRFTISADTSKNTAYLQMNSLRAEDTAVYYCARSWFYSWYDYWGQGTLVTVSS
VL: DIQMTQSPSSLSASVGDRVTITCRASQDVSNNVAWYQQKPGKAPKLLIFWSPWLYSGVPSRFSGSGSGTDFTLTISSLQPEDFATYYCQQGWDSPVTFGQGTKVEIKR
notes: Expressed from the pG1K vector in Expi293F cells, purified on Protein A
With B1, the binding result in assay [1] and in assay [2] was “binds” each time.

B2: scFv clone 3C2 (scFv, V domains shown)
VH: EVQLVESGGGLVQPGGSLRLSCAASGFTIGNSSIHWVRQAPGKGLEWVAGIWPYWGSTYYADSVKGRFTISADTSKNTAYLQMNSLRAEDTAVYYCARFGINNDGFMDYWGQGTLVTVSS
VL: DIQMTQSPSSLSASVGDRVTITCRASQDVSGWVAWYQQKPGKAPKLLISSTGSLYSGVPSRFSGSGSGTDFTLTISSLQPEDFATYYCQQYYDFPITFGQGTKVEIKR
notes: Tested as a secreted scFv with E-tag from the phage library
In the case of B2, the “OD450 ratio (fibrin over fibrinogen)” value in assay [3] amounted to 64.9. For the same molecule, in assay [4], the OD450_Fibrin was found to be 0.759 OD450.

B3: scFv clone 7A3 (scFv, V domains shown)
VH: EVQLVESGGGLVQPGGSLRLSCAASGFTINDWSIHWVRQAPGKGLEWVAYIGPFWGSTFYADSVKGRFTISADTSKNTAYLQMNSLRAEDTAVYYCARGYFGFDYWGQGTLVTVSS
VL: DIQMTQSPSSLSASVGDRVTITCRASQDVGGWVAWYQQKPGKAPKLLISSPRSLYSGVPSRFSGSGSGTDFTLTISSLQPEDFATYYCQQYFSSPFTFGQGTKVEIKR
notes: as for B2
As to B3, the “OD450 ratio (fibrin over fibrinogen)” value in assay [3] came out at 20.5. The OD450_Fibrin in assay [4] worked out at 0.428 OD450.

B4: scFv clone 8F2 (scFv, V domains shown)
VH: EVQLVESGGGLVQPGGSLRLSCAASGFTINNYGIHWVRQAPGKGLEWVAGIWPYWGYTYYADSVKGRFTISADTSKNTAYLQMNSLRAEDTAVYYCARFDSNSYSSYSDGFMDYWGQGTLVTVSS
VL: DIQMTQSPSSLSASVGDRVTITCRASQDVDNSVAWYQQKPGKAPKLLISSARSLYSGVPSRFSGSGSGTDFTLTISSLQPEDFATYYCQQYYNYPITFGQGTKVEIKR
notes: as for B2
B4: the “OD450 ratio (fibrin over fibrinogen)” value in assay [3] amounted to 14.4. In assay [4], the OD450_Fibrin was 0.527 OD450.

B5: recombinant anti-fibrin 102-10 antibody (full-length) (antibody, human IgG1, kappa, V domains shown)
VH: QIQLVQSGPELKKPGETVKISCKASGYTFTNYGMNWVKQAPGKGLKWMGWINTYTGEATYADDFKGRFAFSLETSANTAYVQINNLKNEDTATYFCARLMDYWGQGTSVTVSS
VL: DIQMTQSPSSLSASLGGKVTITCKASQDINKYIAWFQHKPGKGPRLLIHYTSTLQPGIPSRFSGSGSGRDYSFSISNLEPEDLATYYCLQYDNLTWTFGGGTKLEIKR
As to B5, the binding result in assay [1] and in assay [2] was “binds” in each case.

B6: phage-displayed 3D5 scFv (scFv)
scFv: DIQMTQSPSSLSASVGDRVTITCRASQDVSNNVAWYQQKPGKAPKLLIFWSPWLYSGVPSRFSGSGSGTDFTLTISSLQPEDFATYYCQQGWDSPVTFGQGTKVEIKRGGGGSGGGGSGGGGSEVQLVESGGGLVQPGGSLRLSCAASGFTISDFGIHWVRQAPGKGLEWVASIWPSGGYTYYADSVKGRFTISADTSKNTAYLQMNSLRAEDTAVYYCARSWFYSWYDYWGQGTLVTVSS
notes: Tested as secreted scFv in culture supernatant, detected through its E-tag
On to B6, for which the “OD450 ratio (fibrin over fibrinogen)” value in assay [3] is 377. The OD450_Fibrin in assay [4] came to 0.829 OD450.
